In PMC7820495:
Positions count from the first letter of the chain named. Names may count otherwise.

T1: GST-SVIP (Drosophila SVIP, CG32039), Q8IQC6
T1 chain: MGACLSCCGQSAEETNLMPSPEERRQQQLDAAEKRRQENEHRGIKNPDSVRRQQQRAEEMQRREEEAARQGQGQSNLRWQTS

B1: MBP-VCP^N-D1 (Drosophila VCP, N-terminal and first D1 ATPase domain), Q7KN62 P134L (protein)
chain: MADSKGEDLATAILKRKDRPNRLIVEEAQNDDNSVVSLSQAKMDELQLFRGDTVILKGKRRKETVCIVLSDDTCPDEKIRMNRVVRNNLCVHLSDVVSVQSCPDVKYGKRVRILPIDESTEGVTGNLFEIYLKLYFLEAYRPIHMGDNFIVRAAMRPIEFKVVLTDPEPYCIVAPETVIFCDGDPIKREEEEESLNAVGYDDIGGCRKQLAQIKEMVELPLRHPSLFKAIGVKPPRGILMYGPPGTGKTLIARAVANETGAFFFLINGPEIMSKLAGESESNLRKAFEEAEKNSPAIIFIDEIDAIAPKRDKTHGEVERRIVSQLLTLMDGMKKSSHLIVMAATNRPNSIDPALRRFGRFDREIDIGIPDATGRLEVLRIHTKNMKLHDDVDLEQIAAESHGHVGADLASLCSEAALQQIREKMDLIDLEDDKIDAEVLASLAVTMENFRYAMTKSSPSALRETVVEVPNTTWTDIGGLESVKKELQELVQYPVEHPDKFLKFGMQPSRGVLFYGPPGCGKTLLAKAIANECQANFISVKGPELLTMWFGESEANVRDIFDKARSAAPCVLFFDELDSIAKARGGNVGDAGGAADRVINQILTEMDGMGAKKNVFIIGATNRPDIIDPAILRPGRLDQLIYIPLPDDKSREAILKANLRKSPLAKEVDLTYIAKVTQGFSGADLTEICQRACKLAIRQAIEAEIRREKERAENQNSAMDMDEDDPVPEITSAHFEEAMKFARRSVSDNDIRKYEMFAQTLQQSRGFGQNFRFPGQTGNTSGSGNNLPVNSPGDNGDDDLYS
B2: MBP-VCP^N-D1 (Drosophila VCP, N-terminal and first D1 ATPase domain), Q7KN62 A229E (protein)
chain: B1 chain with L134P, A229E
B3: MBP-VCP^N-D1 (Drosophila VCP, N-terminal and first D1 ATPase domain), Q7KN62 A154R (protein)
chain: B1 chain with L134P, A154R
B4: MBP-VCP^N-D1 (Drosophila VCP, N-terminal and first D1 ATPase domain), Q7KN62 N384H (protein)
chain: B1 chain with L134P, N384H
B5: MBP-VCP^N-D1 (Drosophila VCP, N-terminal and first D1 ATPase domain), Q7KN62 R152H (protein)
chain: B1 chain with L134P, R152H
B6: MBP-VCP^N-D1 (Drosophila VCP, N-terminal and first D1 ATPase domain), Q7KN62 T259A (protein)
chain: B1 chain with L134P, T259A
B7: MBP-VCP^N-D1 (Drosophila VCP, N-terminal and first D1 ATPase domain), Q7KN62 R156C (protein)
chain: B1 chain with L134P, R156C
B8: MBP-VCP^N-D1 (Drosophila VCP, N-terminal and first D1 ATPase domain), Q7KN62 R188Q (protein)
chain: B1 chain with L134P, R188Q
B9: MBP-VCP^N-D1 (Drosophila VCP, N-terminal and first D1 ATPase domain), Q7KN62 A436S (protein)
chain: B1 chain with L134P, A436S
B10: MBP-VCP^N-D1 (Drosophila VCP, N-terminal and first D1 ATPase domain), Q7KN62 L195W (protein)
chain: B1 chain with L134P, L195W

Target: T1, GST-SVIP (Drosophila SVIP, CG32039), …
Assay: in vitro binding titration assay
Details: chain shown with the change;; parent: 0.70 uM

Binder | Kd [nM]
B1 | 21600
B2 | 580
B3 | 3610
B4 | 1160
B5 | 640
B6 | 1230
B7 | 1770
B8 | 1500
B9 | 600
B10 | 600
